Ratio to parent data for 7 variants are collected here from paper PMC7545097, “Mapping the native interaction surfaces of PREP1 with PBX1 by cross-linking mass-spectrometry and mutagenesis” (Scientific Reports, 2020).

B1: N-terminal GST-fused wild-type PREP1 [not stated] / PBX1_(1-430), wild-type recombinant [human] (parent complex)
chain 1: MMATQTLSIDSYQDGQQMQVVTELKTEQDPNCSEPDAEGVSPPPVESQTPMDVDKQAIYRHPLFPLLALLFEKCEQSTQGSEGTTSASFDVDIENFVRKQEKEGKPFFCEDPETDNLMVKAIQVLRIHLLELEKVNELCKDFCSRYIACLKTKMNSETLLSGEPGSPYSPVQSQQIQSAITGTISPQGIVVPASALQQGNVAMATVAGGTVYQPVTVVTPQGQVVTQTLSPGTIRIQNSQLQLQLNQDLSILHQDDGSSKNKRGVLPKHATNVMRSWLFQHIGHPYPTEDEKKQIAAQTNLTLLQVNNWFINARRRILQPMLDSSCSETPKTKKKTAQNRPVQRFWPDSIASGVAQPPPSELTMSEGAVVTITTPVNMNVDSLQSLSSDGATLAVQQVMMAGQSEDESVDSTEEDAGALAPAHISGLVLENSDSLQ
chain 2: MDEQPRLMHSHAGVGMAGHPGLSQHLQDGAGGTEGEGGRKQDIGDILQQIMTITDQSLDEAQARKHALNCHRMKPALFNVLCEIKEKTVLSIRGAQEEEPTDPQLMRLDNMLLAEGVAGPEKGGGSAAAAAAAAASGGAGSDNSVEHSDYRAKLSQIRQIYHTELEKYEQACNEFTTHVMNLLREQSRTRPISPKEIERMVSIIHRKFSSIQMQLKQSTCEAVMILRSRFLDARRKRRNFNKQATEILNEYFYSHLSNPYPSEEAKEELAKKCGITVSQVSNWFGNKRIRYKKNIGKFQEEANIYAAKTAVTATNVSAHGSQANSPSTPNSAGSSSSFNMSNSGDLFMSVQSLNGDSYQGAQVGANVQSQVDTLRHVISQTGGYSDGLAASQMYSPQGISANGGWQDATTPSSVTSPTEGPGSVHSDTSN

Variants of B1 are the subject of this test. In words: TR-FIA; parent: 1; read off a plot.
Regarding chain 1 MMATQTLSIDSYQDGQQMQVVTELKTEQDPNCSEPDAEGVSPPPVESQTPMDVDKQAIYRHPLFPALALLFEKCEQSTQGSEGTTSASFDVDIENFVRKQEKEGKPFFCEDPETDNLMVKAIQVLRIHLLELEKVNELCKDFCSRYIACLKTKMNSETLLSGEPGSPYSPVQSQQIQSAITGTISPQGIVVPASALQQGNVAMATVAGGTVYQPVTVVTPQGQVVTQTLSPGTIRIQNSQLQLQLNQDLSILHQDDGSSKNKRGVLPKHATNVMRSWLFQHIGHPYPTEDEKKQIAAQTNLTLLQVNNWFINARRRILQPMLDSSCSETPKTKKKTAQNRPVQRFWPDSIASGVAQPPPSELTMSEGAVVTITTPVNMNVDSLQSLSSDGATLAVQQVMMAGQSEDESVDSTEEDAGALAPAHISGLVLENSDSLQ [chain 1 L66A], the ratio to parent is approximately 0.59. On to chain 1 MMATQTLSIDSYQDGQQMQVVTELKTEQDPNCSEPDAEGVSPPPVESQTPMDVDKQAIYRHPLFPLLALAFEKCEQSTQGSEGTTSASFDVDIENFVRKQEKEGKPFFCEDPETDNLMVKAIQVLRIHLLELEKVNELCKDFCSRYIACLKTKMNSETLLSGEPGSPYSPVQSQQIQSAITGTISPQGIVVPASALQQGNVAMATVAGGTVYQPVTVVTPQGQVVTQTLSPGTIRIQNSQLQLQLNQDLSILHQDDGSSKNKRGVLPKHATNVMRSWLFQHIGHPYPTEDEKKQIAAQTNLTLLQVNNWFINARRRILQPMLDSSCSETPKTKKKTAQNRPVQRFWPDSIASGVAQPPPSELTMSEGAVVTITTPVNMNVDSLQSLSSDGATLAVQQVMMAGQSEDESVDSTEEDAGALAPAHISGLVLENSDSLQ [chain 1 L70A], for which the ratio to parent is approximately 0.53. Turning to chain 1 MMATQTLSIDSYQDGQQMQVVTELKTEQDPNCSEPDAEGVSPPPVESQTPMDVDKQAIYRHPLFPLLALLFEKCEQSTQGSEGTTSASFDVDIENFVRKQEKEGKPFFCEDPETDNLMVKAIQVLRIHLLELEKVNELCKDFCSRYIACLKTKMNSETLLSGEPGSPYSPVQSQQIQSAITGTISPQGIVVPASALQQGNVAMATVAGGTVYQPVTVVTPQGQVVTQTLSPGTIRIQNSQLQLQANQDLSILHQDDGSSKNKRGVLPKHATNVMRSWLFQHIGHPYPTEDEKKQIAAQTNLTLLQVNNWFINARRRILQPMLDSSCSETPKTKKKTAQNRPVQRFWPDSIASGVAQPPPSELTMSEGAVVTITTPVNMNVDSLQSLSSDGATLAVQQVMMAGQSEDESVDSTEEDAGALAPAHISGLVLENSDSLQ [chain 1 L245A], the ratio to parent is approximately 1. Consider chain 1 MMATQTLSIDSYQDGQQMQVVTELKTEQDPNCSEPDAEGVSPPPVESQTPMDVDKQAIYRHPLFPLLALLFEKCEQSTQGSEGTTSASFDVDIENFVRKQEKEGKPFFCEDPETDNLMVKAIQVLRIHLAELEKVNELCKDFCSRYIACLKTKMNSETLLSGEPGSPYSPVQSQQIQSAITGTISPQGIVVPASALQQGNVAMATVAGGTVYQPVTVVTPQGQVVTQTLSPGTIRIQNSQLQLQLNQDLSILHQDDGSSKNKRGVLPKHATNVMRSWLFQHIGHPYPTEDEKKQIAAQTNLTLLQVNNWFINARRRILQPMLDSSCSETPKTKKKTAQNRPVQRFWPDSIASGVAQPPPSELTMSEGAVVTITTPVNMNVDSLQSLSSDGATLAVQQVMMAGQSEDESVDSTEEDAGALAPAHISGLVLENSDSLQ [chain 1 L130A], for which the ratio to parent was approximately 0.79.

With chain 1 MMATQTLSIDSYQDGQQMQVVTELKTEQDPNCSEPDAEGVSPPPVESQTPMDVDKQAIYRHPLFPLLALLFEKCEQSTQGSEGTTSASFDVDIENFVRKQEKEGKPFFCEDPETDNLMVKAIQVARIHLLELEKVNELCKDFCSRYIACLKTKMNSETLLSGEPGSPYSPVQSQQIQSAITGTISPQGIVVPASALQQGNVAMATVAGGTVYQPVTVVTPQGQVVTQTLSPGTIRIQNSQLQLQLNQDLSILHQDDGSSKNKRGVLPKHATNVMRSWLFQHIGHPYPTEDEKKQIAAQTNLTLLQVNNWFINARRRILQPMLDSSCSETPKTKKKTAQNRPVQRFWPDSIASGVAQPPPSELTMSEGAVVTITTPVNMNVDSLQSLSSDGATLAVQQVMMAGQSEDESVDSTEEDAGALAPAHISGLVLENSDSLQ [chain 1 L125A], the ratio to parent is approximately 0.63.

Regarding chain 1 MMATQTLSIDSYQDGQQMQVVTELKTEQDPNCSEPDAEGVSPPPVESQTPMDVDKQAIYRHPLFPLLALLFEKCEQSTQGSEGTTSASFDVDIENFVRKQEKEGKPFFCEDPETDNLMVKAIQVLRIHLLELEKVNELCKDFCSRYIACLKTKMNSETLLSGEPGSPYSPVQSQQIQSAITGTISPQGIVVPASALQQGNVAMATVAGGTVYQPVTVVTPQGQVVTQTLSPGTIRIQNSQLQLQLNQDLSIAHQDDGSSKNKRGVLPKHATNVMRSWLFQHIGHPYPTEDEKKQIAAQTNLTLLQVNNWFINARRRILQPMLDSSCSETPKTKKKTAQNRPVQRFWPDSIASGVAQPPPSELTMSEGAVVTITTPVNMNVDSLQSLSSDGATLAVQQVMMAGQSEDESVDSTEEDAGALAPAHISGLVLENSDSLQ [chain 1 L252A], the ratio to parent is approximately 0.95. As to chain 1 MMATQTLSIDSYQDGQQMQVVTELKTEQDPNCSEPDAEGVSPPPVESQTPMDVDKQAIYRHPLFPLLALLFEKCEQSTQGSEGTTSASFDVDIENFVRKQEKEGKPFFCEDPETDNLMVKAIQVLRIHALELEKVNELCKDFCSRYIACLKTKMNSETLLSGEPGSPYSPVQSQQIQSAITGTISPQGIVVPASALQQGNVAMATVAGGTVYQPVTVVTPQGQVVTQTLSPGTIRIQNSQLQLQLNQDLSILHQDDGSSKNKRGVLPKHATNVMRSWLFQHIGHPYPTEDEKKQIAAQTNLTLLQVNNWFINARRRILQPMLDSSCSETPKTKKKTAQNRPVQRFWPDSIASGVAQPPPSELTMSEGAVVTITTPVNMNVDSLQSLSSDGATLAVQQVMMAGQSEDESVDSTEEDAGALAPAHISGLVLENSDSLQ [chain 1 L129A], the ratio to parent is approximately 0.43.
